Assay results reported in patent US20140286957A1 (Teva, published 2014).
Like-named read-outs stand apart in the source and are kept apart here.

Experiments:
[1] = target: T1, Human CD1d/β2M (human, UniProt P15813 20-301; P61769 21-119); experiment: SPR, transfection supernatant
T1 construct: also called hCD1d; recombinant human CD1d

[2] = target: T2, Human CD1d on cells (human, UniProt P15813 20-335); experiment: cell-based or functional assay
T2 sequence (looked up): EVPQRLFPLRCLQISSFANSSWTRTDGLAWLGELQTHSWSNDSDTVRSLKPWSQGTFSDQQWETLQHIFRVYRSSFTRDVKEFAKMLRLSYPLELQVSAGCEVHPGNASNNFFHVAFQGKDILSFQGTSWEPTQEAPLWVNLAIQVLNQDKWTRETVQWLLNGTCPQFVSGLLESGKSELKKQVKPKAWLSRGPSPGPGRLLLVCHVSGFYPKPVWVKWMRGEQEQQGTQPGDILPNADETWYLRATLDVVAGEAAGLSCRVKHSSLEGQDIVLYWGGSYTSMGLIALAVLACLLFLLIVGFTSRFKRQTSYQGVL

[3] = target: T2, Human CD1d on cells; experiment: cell-based or functional assay; remark: listed apart in the source
[4] = target: T2, Human CD1d on cells; experiment: cell-based or functional assay; remark: listed apart in the source

B1: 401.11.69 (antibody, name in Kabat numbering, V domains shown)
VH: QVQLVGSGGGLVKPGRSLRLSCAASGFTFDDYAMHWVRQAPGKGLEWVATIIWNSAIIGYADSVKGRFIVSRDNAKNSLYLQMNSLRAEDMALYYCAKDMCSDSGCPDGYFDSWGQGTLVTVSS
VL: DIQMTQSPSSVSASVGDRVTITCRASQHISSWLAWYQQKPGKAPNLLIYAASSLQSGVSSRFSGSGSGTDFTLTISSLQPEDFATYYCQQANRFPLTFGGGTKLEIKR
Kd [1]: 0.144 nM

B2: 401.11.79 (antibody, name in Kabat numbering, V domains shown)
VH: QVQLVGSGGGLVKPGRSLRLSCAASGFTFDDYAMHWVRQAPGKGLEWVATIIWNSAIIGYADSVKGRFIVSRDNAKNSLYLQMNSLRAEDMALYYCAKDMCSSTGCPDGYFDSWGQGTLVTVSS
VL: DIQMTQSPSSVSASVGDRVTITCRASQHISSWLAWYQQKPGKAPNLLIYAASSLQSGVSSRFSGSGSGTDFTLTISSLQPEDFATYYCQQANRFPLTFGGGTKLEIKR
binding result [1]: no binding

B3: 401.11.70 (antibody, name in Kabat numbering, V domains shown)
VH: QVQLVGSGGGLVKPGRSLRLSCAASGFTFDDYAMHWVRQAPGKGLEWVATIIWNSAIIGYADSVKGRFIVSRDNAKNSLYLQMNSLRAEDMALYYCAKDMCSTSGCPDGYFDSWGQGTLVTVSS
VL: DIQMTQSPSSVSASVGDRVTITCRASQHISSWLAWYQQKPGKAPNLLIYAASSLQSGVSSRFSGSGSGTDFTLTISSLQPEDFATYYCQQANRFPLTFGGGTKLEIKR
Kd [1]: 0.549 nM

B4: 401.11.77 (antibody, name in Kabat numbering, V domains shown)
VH: QVQLVGSGGGLVKPGRSLRLSCAASGFTFDDYAMHWVRQAPGKGLEWVATIIWNSAIIGYADSVKGRFIVSRDNAKNSLYLQMNSLRAEDMALYYCAKDMCSGSGCPDGYFDSWGQGTLVTVSS
VL: DIQMTQSPSSVSASVGDRVTITCRASQHISSWLAWYQQKPGKAPNLLIYAASSLQSGVSSRFSGSGSGTDFTLTISSLQPEDFATYYCQQANRFPLTFGGGTKLEIKR
Kd [1]: 0.272 nM

B5: 401.11.151 (antibody, IgG4, V domains shown)
VH: EVQLVESGGGLVQPGRSLRLSCAASGFTFDDYAMHWVRQAPGKGLEWVATIIWNSAIIGYADSVKGRFIVSRDNAKNSLYLQMNSLRAEDTALYYCAKDMCSSSGCPDGYFDSWGQGTLVTVSS
VL: DIQMTQSPSSVSASVGDRVTITCRASQHISSWLAWYQQKPGKAPKLLIYAASSLQSGVPSRFSGSGSGTDFTLTISSLQPEDFATYYCQQANRFPLTFGGGTKLEIKR
NKT IL-4 EC50 (moDC) [2]: 12.9 ng/mL
NKT IL-13 EC50 (moDC) [2]: 57.5 ng/mL

B6: 401.11.73 (antibody, name in Kabat numbering, V domains shown)
VH: QVQLVGSGGGLVKPGRSLRLSCAASGFTFDDYAMHWVRQAPGKGLEWVATIIWNSAIIGYADSVKGRFIVSRDNAKNSLYLQMNSLRAEDMALYYCAKDMCSVSGCPDGYFDSWGQGTLVTVSS
VL: DIQMTQSPSSVSASVGDRVTITCRASQHISSWLAWYQQKPGKAPNLLIYAASSLQSGVSSRFSGSGSGTDFTLTISSLQPEDFATYYCQQANRFPLTFGGGTKLEIKR
Kd [1]: 0.527 nM

B7: 401.11.71 (antibody, name in Kabat numbering, V domains shown)
VH: QVQLVGSGGGLVKPGRSLRLSCAASGFTFDDYAMHWVRQAPGKGLEWVATIIWNSAIIGYADSVKGRFIVSRDNAKNSLYLQMNSLRAEDMALYYCAKDMCSWSGCPDGYFDSWGQGTLVTVSS
VL: DIQMTQSPSSVSASVGDRVTITCRASQHISSWLAWYQQKPGKAPNLLIYAASSLQSGVSSRFSGSGSGTDFTLTISSLQPEDFATYYCQQANRFPLTFGGGTKLEIKR
Kd [1]: < 0.01 nM

B8: 401.11.180 (antibody, IgG4, V domains shown)
VH: QVQLVGSGGGLVKPGRSLRLSCAASGFTFDDYAMHWVRQAPGKGLEWVATIIWNSAIIGYADSVKGRFIVSRDNAKNSLYLQMNSLRAEDTALYYCAKDLCSSGGCPEGYFDSWGQGTLVTVSS
VL: DIQMTQSPSSVSASVGDRVTITCRASQHISSWLAWYQQKPGKAPKLLIYAASSLQSGVPSRFSGSGSGTDFTLTISSLQPEDFATYYCQQANRFPLTFGGGTKLEIKR
NKT IFN-γ EC50 (moDC) [3]: 49.5 ng/mL
NKT IL-4 EC50 (moDC) [3]: 1.31 ng/mL
NKT IL-5 EC50 (moDC) [3]: 3.35 ng/mL
NKT IL-13 EC50 (moDC) [3]: 4.09 ng/mL

B9: 401.11.181 (antibody, IgG4, V domains shown)
VH: QVQLVESGGGLVKPGRSLRLSCAASGFTFDDYAMHWVRQAPGKGLEWVATIIWNSAIIGYADSVKGRFIVSRDNAKNSLYLQMNSLRAEDTALYYCAKDMCSSGGCPDGYFDSWGQGTLVTVSS
VL: DIQMTQSPSSVSASVGDRVTITCRASQHISSWLAWYQQKPGKAPKLLIYAASSLQSGVPSRFSGSGSGTDFTLTISSLQPEDFATYYCQQANRFPLTFGGGTKLEIKR
NKT IFN-γ EC50 (THP-1) [4]: 3.25 ng/mL
NKT IFN-γ EC50 (moDC) [4]: 2.63 ng/mL
NKT IL-4 EC50 (THP-1) [4]: 3.19 ng/mL
NKT IL-4 EC50 (moDC) [4]: 1.1 ng/mL
NKT IL-13 EC50 (THP-1) [4]: 5.04 ng/mL

B10: 401.11.159 (antibody, IgG4, V domains shown)
VH: EVQLVESGGGLVQPGRSLRLSCAASGFTFDDYAMHWVRQAPGKGLEWVATIIWNSAIIGYADSVKGRFIVSRDNAKNSLYLQMNSLRAEDMALYYCAKDMCSSGGCPDGYFDSWGQGTLVTVSS
VL: DIQMTQSPSSVSASVGDRVTITCRASQHISSWLAWYQQKPGKAPKLLIYAASSLQSGVSSRFSGSGSGTDFTLTISSLQPEDFATYYCQQANRFPLTFGGGTKLEIKR
NKT IL-4 EC50 (moDC) [2]: 1.69 ng/mL
NKT IL-13 EC50 (moDC) [2]: 10.5 ng/mL

B11: 401.11.84 (antibody, name in Kabat numbering, V domains shown)
VH: QVQLVGSGGGLVKPGRSLRLSCAASGFTFDDYAMHWVRQAPGKGLEWVATIIWNSAIIGYADSVKGRFIVSRDNAKNSLYLQMNSLRAEDMALYYCAKDMCSSRGCPDGYFDSWGQGTLVTVSS
VL: DIQMTQSPSSVSASVGDRVTITCRASQHISSWLAWYQQKPGKAPNLLIYAASSLQSGVSSRFSGSGSGTDFTLTISSLQPEDFATYYCQQANRFPLTFGGGTKLEIKR
Kd [1]: 1.12 nM

B12: 401.11.81 (antibody, name in Kabat numbering, V domains shown)
VH: QVQLVGSGGGLVKPGRSLRLSCAASGFTFDDYAMHWVRQAPGKGLEWVATIIWNSAIIGYADSVKGRFIVSRDNAKNSLYLQMNSLRAEDMALYYCAKDMCSSLGCPDGYFDSWGQGTLVTVSS
VL: DIQMTQSPSSVSASVGDRVTITCRASQHISSWLAWYQQKPGKAPNLLIYAASSLQSGVSSRFSGSGSGTDFTLTISSLQPEDFATYYCQQANRFPLTFGGGTKLEIKR
Kd [1]: 0.552 nM

B13: 401.11.83 (antibody, name in Kabat numbering, V domains shown)
VH: QVQLVGSGGGLVKPGRSLRLSCAASGFTFDDYAMHWVRQAPGKGLEWVATIIWNSAIIGYADSVKGRFIVSRDNAKNSLYLQMNSLRAEDMALYYCAKDMCSSKGCPDGYFDSWGQGTLVTVSS
VL: DIQMTQSPSSVSASVGDRVTITCRASQHISSWLAWYQQKPGKAPNLLIYAASSLQSGVSSRFSGSGSGTDFTLTISSLQPEDFATYYCQQANRFPLTFGGGTKLEIKR
Kd [1]: 1.55 nM

B14: 401.11.85 (antibody, name in Kabat numbering, V domains shown)
VH: QVQLVGSGGGLVKPGRSLRLSCAASGFTFDDYAMHWVRQAPGKGLEWVATIIWNSAIIGYADSVKGRFIVSRDNAKNSLYLQMNSLRAEDMALYYCAKDMCSSYGCPDGYFDSWGQGTLVTVSS
VL: DIQMTQSPSSVSASVGDRVTITCRASQHISSWLAWYQQKPGKAPNLLIYAASSLQSGVSSRFSGSGSGTDFTLTISSLQPEDFATYYCQQANRFPLTFGGGTKLEIKR
Kd [1]: 82.3 nM

B15: 401.11.82 (antibody, name in Kabat numbering, V domains shown)
VH: QVQLVGSGGGLVKPGRSLRLSCAASGFTFDDYAMHWVRQAPGKGLEWVATIIWNSAIIGYADSVKGRFIVSRDNAKNSLYLQMNSLRAEDMALYYCAKDMCSSVGCPDGYFDSWGQGTLVTVSS
VL: DIQMTQSPSSVSASVGDRVTITCRASQHISSWLAWYQQKPGKAPNLLIYAASSLQSGVSSRFSGSGSGTDFTLTISSLQPEDFATYYCQQANRFPLTFGGGTKLEIKR
binding result [1]: no binding

B16: 401.11.75 (antibody, name in Kabat numbering, V domains shown)
VH: QVQLVGSGGGLVKPGRSLRLSCAASGFTFDDYAMHWVRQAPGKGLEWVATIIWNSAIIGYADSVKGRFIVSRDNAKNSLYLQMNSLRAEDMALYYCAKDMCSRSGCPDGYFDSWGQGTLVTVSS
VL: DIQMTQSPSSVSASVGDRVTITCRASQHISSWLAWYQQKPGKAPNLLIYAASSLQSGVSSRFSGSGSGTDFTLTISSLQPEDFATYYCQQANRFPLTFGGGTKLEIKR
binding result [1]: no binding

B17: 401.11.72 (antibody, name in Kabat numbering, V domains shown)
VH: QVQLVGSGGGLVKPGRSLRLSCAASGFTFDDYAMHWVRQAPGKGLEWVATIIWNSAIIGYADSVKGRFIVSRDNAKNSLYLQMNSLRAEDMALYYCAKDMCSLSGCPDGYFDSWGQGTLVTVSS
VL: DIQMTQSPSSVSASVGDRVTITCRASQHISSWLAWYQQKPGKAPNLLIYAASSLQSGVSSRFSGSGSGTDFTLTISSLQPEDFATYYCQQANRFPLTFGGGTKLEIKR
Kd [1]: 0.649 nM

B18: 401.11.80 (antibody, name in Kabat numbering, V domains shown)
VH: QVQLVGSGGGLVKPGRSLRLSCAASGFTFDDYAMHWVRQAPGKGLEWVATIIWNSAIIGYADSVKGRFIVSRDNAKNSLYLQMNSLRAEDMALYYCAKDMCSSWGCPDGYFDSWGQGTLVTVSS
VL: DIQMTQSPSSVSASVGDRVTITCRASQHISSWLAWYQQKPGKAPNLLIYAASSLQSGVSSRFSGSGSGTDFTLTISSLQPEDFATYYCQQANRFPLTFGGGTKLEIKR
Kd [1]: 2.34 nM

B19: 401.11.74 (antibody, name in Kabat numbering, V domains shown)
VH: QVQLVGSGGGLVKPGRSLRLSCAASGFTFDDYAMHWVRQAPGKGLEWVATIIWNSAIIGYADSVKGRFIVSRDNAKNSLYLQMNSLRAEDMALYYCAKDMCSKSGCPDGYFDSWGQGTLVTVSS
VL: DIQMTQSPSSVSASVGDRVTITCRASQHISSWLAWYQQKPGKAPNLLIYAASSLQSGVSSRFSGSGSGTDFTLTISSLQPEDFATYYCQQANRFPLTFGGGTKLEIKR
Kd [1]: 0.0933 nM
